Measurements published in paper PMC8670721.

Key:
[1] = system: LIN28A (LIN28-TAT recombinant protein, Peprotech); assay: filter binding
[2] = system: LIN28A (LIN28-TAT recombinant protein, Peprotech); assay: EMSA

Substance: biotin-labeled pre-let-7a
- Kd [1]: 10 nM
- Kd [2]: 25 nM
